Reference: US7745587 (DYAX, dated 2010)

B1: M0037-D01 IgG (antibody, V domains shown)
VH: EVQLLESGGGLVQPGGSLRLSCAASGFTFSMYMMIWVRQAPGKGLEWVSSIYPSGGNTMYADSVKGRFTISRDNSKNTLYLQMNSLRAEDTAVYYCATGVLRYFDWDAGSGMDVWGQGTTVTVSS
VL: DIQMTQSPSSLSASVGDRVTITCRASQGIRNDLGWYQQKPGKAPKRLIYVASSLQSGVPSRFSGSGSGTEFTLTISSLQPEDFATYYCLQHNSYPWTFGQGTKVEIK
notes: IgG of the Fab
B2: M0043-G02 Fab (Fab, V domains shown)
VH: EVQLLESGGGLVQPGGSLRLSCAASGFTFSWYPMFWVRQAPGKGLEWVSGIYSSGGPTDYADSVKGRFTISRDNSKNTLYLQMNSLRAEDTAVYYCAKDTLGRYYDFWSGYSYGMDVWGQGTTVTVSS
VL: DIQMTQSPGTLSLSPGERATLSCRASQSVSSSYLAWYQQKPGQAPRLLIYGASSRATGIPDRFSGSGSGTDFTLTISRLEPEDFAVYYCQSGVTFGGGTKVEIK
B3: M0031-C02 Fab (Fab, V domains shown)
VH: EVQLLESGGGLVQPGGSLRLSCAASGFTFSPYPMGWVRQAPGKGLEWVSSIVSSGGLTLYADSVKGRFTISRDNSKNTLYLQMNSLRAEDTAVYYCARGGRLYDILTGQGAPFDYWGQGTLVTVSS
VL: DIQMTQSPLSLPVTPGEPASISCRSSQSLLHSNGYYYLDWYLQKPGQSPQLLIYLGSYRASGVPDRFSGSGSGTDFTLKISSVEAEDVGVYYCMQALQTPLTFGGGTRVDIK
B4: M0037-C09 Fab (Fab, V domains shown)
VH: EVQLLESGGGLVQPGGSLRLSCAASGFTFSHYEMFWVRQAPGKGLEWVSSISPSGGQTHYADSVKGRFTISRDNSKNTLYLQMNSLRAEDTAVYYCATDRTYYDFWSGYGPLWYWGQGTLVTVSS
VL: DIQMTQSPLSLPVTLGESASVSCRSSQSLLHENGHNYLDWYLQKPGQSPQLLIYLGSNRASGVPDRFSGSGSGTDFTLKISRVEAEDVGVYYCMQSLKTPPTFGPGTKVEIK
B5: M0040-A11 Fab (Fab, V domains shown)
VH: EVQLLESGGGLVQPGGSLRLSCAASGFTFSHYVMFWVRQAPGKGLEWVSRIVPSGGATMYADSVKGRFTISRDNSKNTLYLQMNSLRAEDTAVYYCARDRPLYDSSGYVDYWGQGTLVTVSS
VL: QSALTQPPSASGSPGQSVTISCTGTSSDVGAYNYVSWYQQHPDKAPKLIIYNVNERPSGVPDRFSGSKSGNTASLTVSGLQAEDEADYYCTSYAGSNKIGVSGTGTKVTVL
B6: M0038-F01 IgG (antibody, V domains shown)
VH: EVQLLESGGGLVQPGGSLRLSCAASGFTFSLYSMNWVRQAPGKGLEWVSSIYSSGGSTLYADSVKGRFTISRDNSKNTLYLQMNSLRAEDTAVYYCARGRAFDIWGQGTMVTVSS
VL: DIQMTQSPSSLSAFVGDKVTITCRASQSVGTYLNWYQQKAGKAPELLIYATSNLRSGVPSRFSGSGSGTDFTLTINTLQPEDFATYYCQQSYSIPRFTFGPGTKVDIK
notes: IgG of the Fab
B7: M0043-G02 IgG (antibody, V domains shown)
VH: B2 VH
VL: B2 VL
notes: IgG of the Fab
B8: M0033-H07 IgG (antibody, V domains shown)
VH: EVQLLESGGGLVQPGGSLRLSCAASGFTFSVYGMVWVRQAPGKGLEWVSVISSSGGSTWYADSVKGRFTISRDNSKNTLYLQMNSLRAEDTALYYCARPFSRRYGVFDYWGQGTLVTVSS
VL: DIQMTQSPSSLSASVGDRVTITCRASQGIRNFLAWYQQKPGKVPKLLVFGASALQSGVPSRFSGSGSGTDFTLTISGLQPEDVATYYCQKYNGVPLTFGGGTKVEIK
notes: IgG of the Fab
B9: M0037-C09 IgG (antibody, V domains shown)
VH: B4 VH
VL: B4 VL
notes: IgG of the Fab; also called M037-C09
B10: M0038-F01 germline (antibody, human IgG1, kappa, V domains shown)
VH: B6 VH
VL: DIQMTQSPSSLSASVGDRVTITCRASQSVGTYLNWYQQKPGKAPKLLIYATSNLRSGVPSRFSGSGSGTDFTLTISSLQPEDFATYYCQQSYSIPRFTFGPGTKVDIKR
notes: Full chains; the ranges 20-464 and 20-234 come from claims 16, 18 and 20

How the values were obtained:
human MMP-14 [1] = biological target: T1, human MMP-14 (human, UniProt P50281 112-541, limits assumed); test: cell-based or functional assay
human MMP-14 [2] = biological target: T1, human MMP-14; test: enzymatic inhibition assay, 2 nM MMP-14, 18 uM substrate Mca-Pro-Leu-Ala-Cys(Mob)-Trp-Ala-Arg-Dap(Dnp)-NH2; rate against [IgG] 0-50 nM
Experimental: (§1) K_i studies were performed using an enzymatic assay at substrate [Mca-Pro-Leu-Ala-Cys(Mob)-Trp-Ala-Arg-Dap(Dnp)-NH_2] concentrations of 10 μM, 14 μM and 18 μM. […] The concentration of MMP-14 was 2 nM.

human MMP-14 [3] = biological target: T1, human MMP-14; test: enzymatic inhibition assay, 2 nM MMP-14, 14 uM substrate Mca-Pro-Leu-Ala-Cys(Mob)-Trp-Ala-Arg-Dap(Dnp)-NH2; rate against [IgG] 0-50 nM
Experimental: as §1

human MMP-14 [4] = biological target: T1, human MMP-14; test: enzymatic assay, IgG, 2 nM MMP-14, peptide substrate at 10, 14, 18 µM; highest Ki measured
Experimental: as §1

MMP-24 = MMP-24 (human, UniProt Q9Y5R2 156-328, limits assumed); test: cell-based or functional assay
human MMP-14 [5] = biological target: T1, human MMP-14; test: enzymatic inhibition assay against 2 pM hMMP-14; rate (dF/min) against [I] 0-100 nM
[6] = biological target: mouse MMP-14 in arthritic knee joints of C57Bl6 mice (mouse, UniProt P53690 112-582); test: immunohistochemistry of mouse joints, acute SCW-induced arthritis
human MMP-14 [7] = biological target: T1, human MMP-14; test: enzymatic inhibition assay, 2 nM MMP-14, 10 uM substrate Mca-Pro-Leu-Ala-Cys(Mob)-Trp-Ala-Arg-Dap(Dnp)-NH2; rate against [IgG] 0-50 nM
Experimental: as §1

human MMP-14 [8] = biological target: T1, human MMP-14; test: enzymatic inhibition assay against 2 pM hMMP-14; rate (dF/min) against [I] 0-100 nM; value taken from the line under the panel marked Parental, not from its inset table
human MMP-14 [9] = biological target: T1, human MMP-14; test: enzymatic inhibition assay against 2 pM hMMP-14; rate (dF/min) against [I] 0-50 nM

Sequence of MMP-24 (Q9Y5R2 156-328 limits assumed): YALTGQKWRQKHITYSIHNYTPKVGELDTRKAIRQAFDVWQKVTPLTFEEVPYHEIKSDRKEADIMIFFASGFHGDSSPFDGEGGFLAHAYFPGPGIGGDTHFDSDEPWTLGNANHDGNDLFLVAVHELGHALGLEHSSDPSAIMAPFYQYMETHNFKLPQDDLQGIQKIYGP

Row | Binder | IC50 of MMP-14 inhibition (MMP-14 at 2 pM), IgG (human MMP-14 [1]) [nM] | Ki (human MMP-14 [3]) [nM] | Ki (human MMP-14 [4]) [nM] | IC50 of MMP-14 inhibition (MMP-14 at 2 pM), Fab (human MMP-14 [1]) [nM] | MMP-24 activity, 100 nM final Fab with 5 nM MMP-24 (MMP-24) [% inhibition] | Ki (human MMP-14 [7]) [nM] | other results
1 | B1 | 1.7 | 1.7 | 2.9 | – | – | – | Ki (human MMP-14 [2]): 2 nM
2 | B2 | – | – | – | 9.3 | 74 | – | –
3 | B3 | – | – | – | 56 | 54 | – | –
4 | B4 | – | – | – | 11.5 | 72 | – | –
5 | B5 | – | – | – | 23.2 | 58 | – | –
6 | B6 | 2 | 0.9 | 1.2 | – | – | 0.6 | IC50 (human MMP-14 [5]): 8.3 nM; binding result [6]: binds
7 | B7 | 0.3 | – | 1.2 | – | – | 0.7 | Ki (human MMP-14 [2]): 1.1 nM
8 | B8 | 5.1 | 2.7 | 4 | – | – | 3.3 | IC50 (human MMP-14 [8]): 12.2 nM
9 | B9 | 4.2 | 6.3 | 8.6 | – | – | 7.2 | –
10 | B10 | – | – | – | – | – | – | IC50 (human MMP-14 [9]): 5.13 nM
